Data: PMC6335408 (Nature Communications, 2019)

What was measured:
[1] = biological target: T1, Ubl45^ΔC (tailless Ubl45) (UniProt Q93009 890-1082); assay: SPR; GST-USP7CD captured by anti-GST antibody on CM5 chip, Ubl45 or Ubl45ΔC flowed over; Biacore T200, 25 °C; 20 mM HEPES pH 7.5, 100 mM NaCl, 1 mM DTT, 1 mM EDTA, 0.05% Tween-20, 1 mg/mL BSA, 1 mg/mL dextran; equilibrium fit 1:1, extrapolated; details: both partners purified
T1 construct: USP7 Ubl45 without the C-terminal tail: stop codon introduced at residue 1083; start 890 as told for Ubl45; also called tailless construct; source: E. coli BL21, purified (Glutathione Sepharose, 3C cleavage, anion exchange, gel filtration)

[2] = biological target: T2, USP7 Ubl45 (last two Ubl domains with the activating C-terminal tail) (UniProt Q93009 890-1102); assay: as above; details: both partners purified
T2 construct: USP7 Ubl domains 4 and 5 with the C-terminal tail, residues 890-1102 (25 kDa); source: E. coli BL21, purified (Glutathione Sepharose, 3C cleavage, anion exchange, gel filtration); 15N-labelled in M9 minimal medium for NMR
T2 sequence (Q93009 890-1102): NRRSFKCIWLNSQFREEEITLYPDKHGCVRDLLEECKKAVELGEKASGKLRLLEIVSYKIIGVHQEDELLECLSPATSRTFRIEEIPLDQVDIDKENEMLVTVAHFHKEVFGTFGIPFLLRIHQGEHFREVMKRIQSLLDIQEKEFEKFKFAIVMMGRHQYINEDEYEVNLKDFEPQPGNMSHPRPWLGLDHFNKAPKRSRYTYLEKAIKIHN

T1 sequence (Q93009 890-1082, stated change not applied): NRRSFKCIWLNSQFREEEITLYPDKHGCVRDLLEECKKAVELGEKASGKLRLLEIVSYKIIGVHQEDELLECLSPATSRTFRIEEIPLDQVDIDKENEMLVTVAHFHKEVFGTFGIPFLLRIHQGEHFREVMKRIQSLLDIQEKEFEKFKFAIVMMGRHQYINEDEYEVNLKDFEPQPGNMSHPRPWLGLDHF

B1: GST-USP7CD (domain or fragment)
chain: KKHTGYVGLKNQGATCYMNSLLQTLFFTNQLRKAVYMMPTEGDDSSKSVPLALQRVFYELQHSDKPVGTKKLTKSFGWETLDSFMQHDVQELCRVLLDNVENKMKGTCVEGTIPKLFRGKMVSYIQCKEVDYRSDRREDYYDIQLSIKGKKNIFESFVDYVAVEQLDGDNKYDAGEHGLQEAEKGVKFLTLPPVLHLQLMRFMYDPQTDQNIKINDRFEFPEQLPLDEFLQKTDPKDPANYILHAVLVHSGDNHGGHYVVYLNPKGDGKWCKFDDDVVSRCTKEEAIEHNYGGHDDDLSVRHCTNAYMLVYIRESKLSEVLQAVTDHDIPQQLVERLQEEKRIEAQKRKERQE
modifications: GST tag (used for chip immobilisation) left out; limits 208-560 are the usual USP7 CD construct limits, not printed in the text (consistent with the stated 42 kDa)
- Kd [1]: 420 µM
- Kd [2]: ~280 µM
